Results reported in patent US20070166787A1 (YEDA RESEARCH AND DEVELOPMENT, published 2007).

B1: death domain (DD) of human TRADD, residues 195-312, Gal4 hybrid construct (other, not shown: large carriers)
chain: PPPPAQTFLFQGQPVVNRPLSLKDQQTFARSVGLKWRKVGRSLQRGCRALRDPALDSLAYEYEREGLYEQAFQLLRRFVQAEGRRATLQRLVEALEENELTSLAEDLLGLTDPNGGLA
notes: Yeast two-hybrid fusion; also called TRADD DD
B2: death domain (DD) of human MORT-1, residues 92-208, Gal4 hybrid construct (other, not shown: large carriers)
chain: PGEEDLCAAFNVICDNVGKDWRRLARQLKVSDTKIDSIEDRYPRNLTERVRESLRIWKNTEKENATVAHLVGALRSCQMNLVADLVQEVQQARDLQNRSGAMSPMSWNSDASTSEAS
notes: Yeast two-hybrid fusion; also called MORT-1 DD; HF1
B4: death domain (DD) of human p55 TNF-R, residues 326-426, Gal4 hybrid construct (receptor, not shown: large carriers)
chain: DPATLYAVVENVPPLRWKEFVRRLGLSDHEIDRLELQNGRCLREAQYSMLATWRRRTPRREATLELLGRVLRDMDLLGCLEDIEEALCGPAALPPAPSLLR
notes: Yeast two-hybrid fusion; also called p55-R; p55 TNF-R DD

What was measured:
SNF 1 = target: T1, SNF 1 (UniProt P06782 1-633, limits assumed); experiment: yeast two-hybrid specificity test (not shown)
T1 sequence (looked up): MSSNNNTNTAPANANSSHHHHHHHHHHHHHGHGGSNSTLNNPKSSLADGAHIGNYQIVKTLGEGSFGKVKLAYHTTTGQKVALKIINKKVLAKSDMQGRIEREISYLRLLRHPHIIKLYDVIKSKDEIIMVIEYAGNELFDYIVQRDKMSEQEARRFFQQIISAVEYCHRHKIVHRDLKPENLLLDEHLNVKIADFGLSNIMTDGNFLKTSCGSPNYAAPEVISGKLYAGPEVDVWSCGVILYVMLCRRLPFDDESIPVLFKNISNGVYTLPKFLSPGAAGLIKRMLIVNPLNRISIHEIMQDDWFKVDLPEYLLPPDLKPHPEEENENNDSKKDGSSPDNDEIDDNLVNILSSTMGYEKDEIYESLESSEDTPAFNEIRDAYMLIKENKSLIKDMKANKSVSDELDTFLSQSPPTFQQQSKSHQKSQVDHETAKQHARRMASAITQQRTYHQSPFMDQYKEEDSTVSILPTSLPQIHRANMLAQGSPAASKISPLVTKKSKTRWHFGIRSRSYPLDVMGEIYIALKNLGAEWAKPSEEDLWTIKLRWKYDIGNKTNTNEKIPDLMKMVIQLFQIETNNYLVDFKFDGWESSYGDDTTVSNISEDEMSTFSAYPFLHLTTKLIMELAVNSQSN

[1] = target: T2, intracellular domain of the human p75 TNF receptor (human, UniProt P20333 288-461, limits assumed); experiment: yeast two-hybrid specificity test (not shown)
T2 construct: domain: intracellular domain; Irrelevant control in the two-hybrid specificity test; construct not described; also called p75 IC
T2 sequence (looked up): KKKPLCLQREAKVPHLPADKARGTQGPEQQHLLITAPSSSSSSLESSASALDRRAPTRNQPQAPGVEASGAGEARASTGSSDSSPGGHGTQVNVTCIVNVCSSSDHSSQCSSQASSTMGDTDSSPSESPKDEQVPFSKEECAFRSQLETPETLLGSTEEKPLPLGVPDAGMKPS

[2] = target: the molecule itself; experiment: yeast two-hybrid, beta-galactosidase filter assay, SFY526
Description: (§1) Two-Hybrid β-Galactosidase Expression Tests. cDNA inserts were cloned by PCR, either from the full-length cDNAs cloned previously in our laboratory, or from purchased cDNA libraries. Residue numbering in the proteins encoded by the cDNA inserts are as in the Swiss-Prot Data Bank. Point mutants were produced by oligonucleotide-directed mutagenesis (Kunkel, 1994). β-galactosidase expression in yeasts (SFY526 reporter strain (Bartel et al, 1993)) transformed with these cDNAs in the pGBT-9 and pGAD-GH vectors (DNA binding domain (DBD) and activation domain (AD) constructs, respectively) was assessed by a filter assay (Boldin et al, 1995). When expressed in the pGAD-GH vector, RIP and its DD had some cytotoxic effect on the yeasts, manifested in a low yield of yeast colonies.
(§2) The interactions of the DDs of human p55 TNF-R, FAS-R, TRADD, MORT-1 and RIP were evaluated first by a yeast two-hybrid test. The cDNAs encoding these domains were expressed as fusion proteins with the Gal4 DNA binding and activation domains (DBD and AD constructs) in the yeast SFY526 reporter strain, and the binding of these fusion proteins to each other was assessed by determining β-galactosidase expression by the yeasts. The results of these tests are summarized in FIG. 1 and illustrated diagrammatically in FIG. 3.

[3] = target: B1; experiment: as above
Description: as §1, §2

[4] = target: the molecule itself; experiment: yeast two-hybrid, self-association, beta-galactosidase filter assay, SFY526
Description: as §1, §2

[5] = target: B4; experiment: yeast two-hybrid specificity test (not shown)
[6] = target: B2; experiment: yeast two-hybrid specificity test (not shown)
[7] = target: B1; experiment: yeast two-hybrid specificity test (not shown)
[8] = target: B1; experiment: yeast two-hybrid (summing up of Example 2)
Description: as §1, §2

[9] = target: B2; experiment: yeast two-hybrid, beta-galactosidase filter assay, SFY526
Description: as §1, §2

[10] = target: B2; experiment: yeast two-hybrid, beta-galactosidase filter assay
Description: (§3) FIG. 2 depicts interactions of the ‘death domains’ of the P55-R, Fas/APOI, MORT-1, TRADD and. RIP in a yeast two-hybrid test, and the effect of lbr^cg-like mutations in these proteins on their interactions. Assessment of the interaction of Gal4 hybrid constructs encompassing the following human proteins, truncated upstream to their DD motifs: p55-R (residues 326-426), FAS-R (residues 210-319), MORT-1 (residues 92-208), TRADD (residues 195-312) and RIP (residues 261-372), as well as of the following points mutants of these proteins: p55-R L35IN, FAS-R V238N, MORT-1 V121N, and RIP F308N, whose mutation sites within the DDs correspond to that found in the FAS-R of the lpr^cg mice. Each cDNA insert was introduced both into the Gal4 DNA binding domain (DBD) and the Gal4 activation domain (AD) constructs (pGBT9 abd pGAD-GH), and the binding of the inserts in both constructs to all other inserts within transfected SFY526 yeasts was assessed by a β-galactosidase expression filter assay. The results are presented in terms of the time required for development of strong color. ND—not done.
as §1

[11] = target: B1; experiment: yeast two-hybrid, beta-galactosidase filter assay
Description: as §3, §1

[12] = target: the molecule itself; experiment: yeast two-hybrid, beta-galactosidase filter assay
Description: as §3, §1

B1
binding result (SNF 1): no binding | binding result [1]: no binding | binding result [2]: binds

B2
binding result (SNF 1): no binding | binding result [1]: no binding | binding result [3]: binds | binding result [4]: no binding

B3: DD of the rat low-affinity NGF receptor (receptor, UniProt P07174 340-425, looked up)
chain: LPLTKREEVEKLLNGDTWRHLAGELGYQPEHIDSFTHEACPVRALLASWGAQDSATLDALLAALRRIQRADIVESLCSESTATSPV
notes: domain: DD; Control in the two-hybrid specificity test; construct not described; also called rat NGF-R DD
binding result [5]: no binding | binding result [6]: no binding | binding result [7]: no binding

B4
binding result [8]: binds | binding result (SNF 1): no binding | binding result [1]: no binding | binding result [9]: no binding

B5: human p55 TNF-R DD (residues 326-426) point mutant L351N, Gal4 hybrid construct (receptor, not shown: large carriers)
chain: DPATLYAVVENVPPLRWKEFVRRLGNSDHEIDRLELQNGRCLREAQYSMLATWRRRTPRREATLELLGRVLRDMDLLGCLEDIEEALCGPAALPPAPSLLR
notes: Legend prints 'L35IN'; also called p55-R L35IN; p55 TNF-R (L351N)
binding result [10]: no binding | binding result [11]: no binding | binding result [12]: no binding
